Data taken from paper PMC8766471, “Mutations affecting the N-terminal domains of SHANK3 point to different pathomechanisms in neurodevelopmental disorders” (Scientific Reports, 2022).

B1: Shank3 N-terminus (SPN + Ank domains, residues 1-339), WT, mRFP-tagged [rat] / δ-catenin, GFP-tagged [mouse] (parent complex)
chain 1: MDGPGASAVVVRVGIPDLQQTKCLRLDPTAPVWAAKQRVLCALNHSLQDALNYGLFQPPSRGRAGKFLDEERLLQDYPPNLDTPLPYLEFRYKRRVYAQNLIDDKQFAKLHTKANLKKFMDYVQLHSTDKVARLLDKGLDPNFHDPDSGECPLSLAAQLDNATDLLKVLRNGGAHLDFRTRDGLTAVHCATRQRNAGALTTLLDLGASPDYKDSRGLTPLYHSALGGGDALCCELLLHDHAQLGTTDENGWQEIHQACRFGHVQHLEHLLFYGANMGAQNASGNTALHICALYNQESCARVLLFRGANKDVRNYNSQTAFQVAIIAGNFELAEVIKTHK
chain 2: MFARKQSGAAPFGAMPVPDQPPSASEKNSSLSPGLNTSNGDGSETETTSAILASVKEQELQFERLTRELEAERQIVASQLERCKLGSETGSMSSISSAGEQFHWQTQDGQKDIEDELTTGLELVDSCIRSLQESGILDPQDYSTSERPSLLSQSALQLNSKPEGSFQYPASYHSNQTLALGDTAPSQLPARSTQARAAGQSFSQGTTGRAGHLAGSEPAPPPPPPREPFAPSLGSAFHLPDAPPAAAALYYSSSTLPAPPRGGSPLTTTQGGSPTKLQRGGSAPEGAAYAAPRGSSPKQSPSRLAKSYSTSSPINIVVSSAGLSPIRVTSPPTVQSTISSSPIHQLSSTIGTYATLSPTKRLVHASEQYSKHSQELYATATLQRPGSLAAGSRASYSSQHGHLAPELRALQSPEHHIDPIYEDRVYQKPPMRSLSQSQGDPLPPAHTGTFRTSTAPSSPGVDSVPLQRTGSQHGPQNAAAATFQRASYAAGPASNYADPYRQLQYCASVDSPYSKSGPALPPEGTLARSPSIDSIQKDPREFGWRDPELPEVIQMLQHQFPSVQSNAAAYLQHLCFGDNKIKAEIRRQGGIQLLVDLLDHRMTEVHRSACGALRNLVYGKANDDNKIALKNCGGIPALVRLLRKTTDLEIRELVTGVLWNLSSCDALKMPIIQDALAVLTNAVIIPHSGWENSPLQDDRKIQLHSSQVLRNATGCLRNVSSAGEEARRRMRECDGLTDALLYVIQSALGSSEIDSKTVENCVCILRNLSYRLAAETSQGQHMGTDELDGLLCGETNGKDTESSGCWGKKKKKKKSQDQWDGVGPLPDCAEPPKGIQMLWHPSIVKPYLTLLSECSNPDTLEGAAGALQNLAAGSWKGWAEDVAGMAYALRSLPEGAPCLPQWSVYIRAAVRKEKGLPILVELLRIDNDRVVCAVATALRNMALDVRNKELIGKYAMRDLVHRLPGGNNSNNSGSKAMSDDTVTAVCCTLHEVITKNMENAKALRDAGGIEKLVGISKSKGDKHSPKVVKAASQVLNSMWQYRDLRSLYKKDGWSQYHFVASSSTIERDRQRPYSSSRTPSISPVRVSPNNRSASAPASPREMISLKERKTDYESAGNNATYHGTKGEHTSRKDTMTAQNTGVSTLYRNSYGAPAEDIKQNQVSTQPVPQEPSRKDYETYQPFPNSTRNYDESFFEDQVHHRPPASEYTMHLGLKSTGNYVDFYSAARPYSELNYETSHYPASPDSWV

Variants of: B1
Test: co-immunoprecipitation (mRFP-trap) with Western blot quantification; coexpressed in 293 T cells; three independent experiments; read off a plot

Variant | response
chain 1 D69G | ~0.13
chain 1 Q317R | ~0.14
chain 1 P141A | ~0.022
chain 1 T337S | ~0.092
chain 1 L270M | ~0.066
chain 1 Q106P | ~0.07
chain 1 Q256H | ~0.05
chain 1 G250C | ~0.05
chain 1 Y272C | ~0.068
